The results in this text go back to patent publication US20230338526A1 (BIO THERA SOLUTIONS, published 2023).

In experiment [1] the target is T1, CD20 (human, UniProt P11836 1-297).
T1 sequence (looked up): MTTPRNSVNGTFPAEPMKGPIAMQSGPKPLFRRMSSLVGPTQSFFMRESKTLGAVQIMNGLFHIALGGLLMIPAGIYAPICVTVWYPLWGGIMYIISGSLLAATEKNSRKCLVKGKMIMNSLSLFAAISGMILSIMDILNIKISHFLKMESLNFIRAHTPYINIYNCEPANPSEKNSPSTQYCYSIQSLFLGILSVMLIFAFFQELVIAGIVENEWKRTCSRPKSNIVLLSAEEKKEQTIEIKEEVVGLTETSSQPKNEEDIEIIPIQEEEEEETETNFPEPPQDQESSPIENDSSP
In words: cell-based or functional assay.

For experiment [2], the target named is T1, CD20. In words: cell-based or functional assay. This is another data set of the same source.
The target of experiment [3] is T1, CD20. The experiment in a line: binding to CD20+ cells; method and cell line not stated.

B1: Rituximab (antibody, V domains shown)
VH: QVQLQQPGAELVKPGASVKMSCKASGYTFTSYNMHWVKQTPGRGLEWIGAIYPGNGDTSYNQKFKGKATLTADKSSSTAYMQLSSLTSEDSAVYYCARSTYYGGDWYFNVWGAGTTVTVSA
VL: QIVLSQSPAILSASPGEKVTMTCRASSSVSYIHWFQQKPGSSPKPWIYATSNLASGVPVRFSGSGSGTSYSLTISRVEAEDAATYYCQQWTSNPPTFGGGTKLEIK
Consider B1, for which, in experiment [1], the “Percentage of whole blood B-cell depletion in vitro, 10 ng/ml” value amounted to 17.8% and the “Percentage of whole blood B-cell depletion in vitro, 50 ng/ml” value was 36%. In addition, in experiment [2], the “ADCC, PBMC method” value is 0.0496 nM and the “ADCC, Reporter gene assay method” value is 0.019 nM. Moreover, the “Binding to CD 20^+ cells” value in experiment [3] worked out at 10.2 nM.
